What was measured:
[1] = molecular target: his-HCF[K919I, A933L], His-tagged myosin heavy chain fragment with coiled-coil stabilizing mutations (Mus musculus); assay: SEC
[2] = molecular target: his-HCF[K919I, A933L], His-tagged myosin heavy chain fragment with coiled-coil stabilizing mutations (Mus musculus); assay: pull-down
[3] = molecular target: his-HCF, His-tagged myosin heavy chain fragment K810-E934 (Mus musculus); assay: pull-down

stoichiometry N [1]	stoichiometry N (RLC per his-HCF[K919I, A933L]) [2]	stoichiometry N (RLC per his-HCF) [3]	Molecule
2			his-HCF[K919I, A933L], His-tagged myosin heavy chain fragment with coiled-coil stabilizing mutations (domain or fragment)
	1	1	myosin regulatory light chain without His-tag (RLC), P97457 1-169 (natural protein, modifications not checked) MPKCAKRRAGAEGSSNVFSMFDQTQIQEFKEAFTVIDQNRDGIIDKEDLRDTFAAMGRLNVKNEELDAMMKEASGPINFTVFLTMFGEKLKGADPEDVITGAFKVLDPEGKGTIKKQFLEELLTTQCDRFSQEEIKNMWAAFPPDVGGNVDYKNICYVITHGDAKDQE

From article PMC6699511
